How the values were obtained:
ActRIIA-mFc = biological target: T1, ActRIIA-mFc (human, UniProt P27037 20-135); assay: similar Biacore binding assay
T1 construct: extracellular domain; not shown: minimal linker, not specified for the mouse construct
Method: GDF11 or activin A were immobilized on a Biacore™ CMS chip using standard amine-coupling procedure. ActRIIA-hFc and ActRIIA-mFc proteins were loaded onto the system, and binding was measured. […] See FIG. 15A-B. Using a similar binding assay, ActRIIA-hFc was determined to have high to moderate affinity for other TGF-beta superfamily ligands including, for example, activin B, GDF8, BMP6, and BMP10. ActRIIA-mFc behaved similarly.

ActRIIB-Fc homodimer [1] = biological target: T2, ActRIIB-Fc homodimer (human, UniProt Q13705 19-137); assay: SPR (Biacore), anti-Fc capture, ligand in flow
T2 construct: extracellular domain; also called unmodified ActRIIB-Fc homodimer; ActRIIB-Fc:ActRIIB-Fc homodimer
T2 sequence (looked up): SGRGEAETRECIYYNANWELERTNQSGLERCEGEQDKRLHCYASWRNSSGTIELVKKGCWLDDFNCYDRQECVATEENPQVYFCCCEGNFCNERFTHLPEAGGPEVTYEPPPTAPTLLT
Method: A Biacore™-based binding assay was used to compare ligand binding selectivity of the ActRIIB-Fc:ALK4-Fc heterodimeric complex described above with that of ActRIIB-Fc and ALK4-Fc homodimer complexes. The ActRIIB-Fc:ALK4-Fc heterodimer, ActRIIB-Fc homodimer, and ALK4-Fc homodimer were independently captured onto the system using an anti-Fc antibody. Ligands were injected and allowed to flow over the captured receptor protein. Results are summarized in the table below, in which ligand off-rates (kd) most indicative of effective ligand traps are denoted by bold font.

ActRIIB-Fc homodimer [2] = biological target: T2, ActRIIB-Fc homodimer; assay: SPR (Biacore), anti-Fc capture, ligand in flow; remark: listed apart in the source
Method: A Biacore™-based binding assay was used to compare ligand binding selectivity of the ActRIIB-Fc:ALK7-Fc heterodimeric complex described above with that of ActRIIB-Fc and ALK7-Fc homodimeric complexes. The ActRIIB-Fc:ALK7-Fc heterodimer, ActRIIB-Fc homodimer, and ALK7-Fc homodimer were independently captured onto the system using an anti-Fc antibody. Ligands were injected and allowed to flow over the captured receptor protein. Results are summarized in the table below, in which ligand off-rates (kd) most indicative of effective ligand traps are denoted by bold font.

ActRIIB-Fc homodimer [3] = biological target: T2, ActRIIB-Fc homodimer; assay: SPR (Biacore), 37 C, anti-Fc capture, ligand in flow
Method: A Biacore™-based binding assay was used to compare the ligand binding kinetics of an ActRIIB-Fc:ActRIIB(L79E)-Fc heterodimer with those of unmodified ActRIIB-Fc homodimer. Fusion proteins were captured onto the system using an anti-Fc antibody. Ligands were then injected and allowed to flow over the captured receptor protein at 37° C. Results are summarized in the table below, in which ligand off-rates (kd) most indicative of effective ligand traps are denoted in bold.

T1 sequence (P27037 20-135): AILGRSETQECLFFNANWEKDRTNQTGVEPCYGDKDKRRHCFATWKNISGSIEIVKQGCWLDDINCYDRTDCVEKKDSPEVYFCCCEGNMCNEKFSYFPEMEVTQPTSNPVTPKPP

binding result (ActRIIA-mFc): binds
Kd (ActRIIB-Fc homodimer [1]): 20 pM
koff (ActRIIB-Fc homodimer [1]): 0.0001 s⁻¹
kon (ActRIIB-Fc homodimer [1]): 5.1e+06 M⁻¹ s⁻¹
Kd (ActRIIB-Fc homodimer [2]): 8 pM
koff (ActRIIB-Fc homodimer [2]): 0.00016 s⁻¹
kon (ActRIIB-Fc homodimer [2]): 1.5e+07 M⁻¹ s⁻¹
Kd (ActRIIB-Fc homodimer [3]): 8 pM
koff (ActRIIB-Fc homodimer [3]): 6.6e-05 s⁻¹
kon (ActRIIB-Fc homodimer [3]): 8.1e+06 M⁻¹ s⁻¹
B1: activin B (ligand, UniProt P09529 293-407, looked up)
chain: GLECDGRTNLCCRQQFFIDFRLIGWNDWIIAPTGYYGNYCEGSCPAYLAGVPGSASSFHTAVVNQYRMRGLNPGTVNSCCIPTKLSTMSMLYFDDEYNIVKRDVPNMIVEECGCA

Reference: US20250064952A1 (ACCELERON PHARMA, published 2025)
